For the experiment, the target named is 3xFLAG-FL-NOPCHAP1 (human) (UniProt Q8N5I9). In words: co-IP.

This is an account of results in PMC7826282.

A value given as a limit tells only on which side of the number the result lay.

Sequence of 3xFLAG-FL-NOPCHAP1 (human) (Q8N5I9 whole entry): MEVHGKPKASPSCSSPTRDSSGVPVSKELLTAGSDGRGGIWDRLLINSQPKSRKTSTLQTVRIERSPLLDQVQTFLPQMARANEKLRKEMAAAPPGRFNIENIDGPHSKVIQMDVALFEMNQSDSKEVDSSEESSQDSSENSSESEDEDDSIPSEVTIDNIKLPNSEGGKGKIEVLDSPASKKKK
Sequence of RL-NOP56-WT (O00567 whole entry): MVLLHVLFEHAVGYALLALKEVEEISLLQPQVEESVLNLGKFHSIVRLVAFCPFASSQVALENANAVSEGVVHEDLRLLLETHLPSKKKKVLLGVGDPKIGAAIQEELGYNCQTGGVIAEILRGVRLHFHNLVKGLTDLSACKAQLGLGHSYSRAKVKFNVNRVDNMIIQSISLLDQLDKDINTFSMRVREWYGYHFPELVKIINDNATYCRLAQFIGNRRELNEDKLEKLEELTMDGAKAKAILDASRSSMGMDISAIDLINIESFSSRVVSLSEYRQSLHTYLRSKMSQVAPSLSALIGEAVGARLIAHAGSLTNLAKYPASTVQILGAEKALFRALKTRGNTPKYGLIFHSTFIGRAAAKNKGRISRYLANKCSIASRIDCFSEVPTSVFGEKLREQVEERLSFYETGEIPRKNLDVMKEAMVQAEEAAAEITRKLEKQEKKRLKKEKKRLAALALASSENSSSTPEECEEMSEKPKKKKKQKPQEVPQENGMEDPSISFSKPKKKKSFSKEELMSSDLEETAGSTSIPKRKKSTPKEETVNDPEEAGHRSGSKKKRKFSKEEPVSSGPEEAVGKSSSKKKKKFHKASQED

As for “RL-NOP56-WT (from UniProt O00567 1-594) (natural protein)”, the co-IP efficiency was below 0.05%.
